Laboratory results: patent US20240352130A1 (CHILDREN S HOSPITAL OF PHILADELPHIA, published 2024)
Like-named read-outs stand apart in the source and are kept apart here.

Tests used:
… HLA-A*24:02 complex [1] = molecular target: T1, … HLA-A*24:02 complex (human); assay: bead-based binding, scFv on streptavidin beads, fluorescent pMHC
T1 construct: also called Unrelated peptide 2

… HLA-A*24:02 complex [2] = molecular target: T2, … HLA-A*24:02 complex (human); assay: as above
T2 construct: also called Unrelated peptide 1

… HLA-A*24:02 complex [3] = molecular target: T3, … HLA-A*24:02 complex (human); assay: as above
T3 construct: also called Unrelated peptide 3

… HLA-A*24:02 complex [4] = molecular target: T4, … HLA-A*24:02 complex (human); assay: as above
T4 construct: also called Unrelated peptide 4

[5] = molecular target: T5, PHOX2B (43-51) A*24:02 MHC complex (human); assay: BLI (BLItz), biotinylated scFv on streptavidin sensor, soluble pMHC 200 nM
T5 construct: also called PHOX2B (43-51) complex; PHOX2B target pMHC

… HLA-A*24:02 complex [6] = molecular target: T1, … HLA-A*24:02 complex; assay: bead-based binding, scFv on streptavidin beads, fluorescent pMHC; remark: listed apart in the source
… HLA-A*24:02 complex [7] = molecular target: T2, … HLA-A*24:02 complex; assay: as above; remark: listed apart in the source
… HLA-A*24:02 complex [8] = molecular target: T3, … HLA-A*24:02 complex; assay: as above; remark: listed apart in the source
… HLA-A*24:02 complex [9] = molecular target: T4, … HLA-A*24:02 complex; assay: as above; remark: listed apart in the source
[10] = molecular target: T5, PHOX2B (43-51) A*24:02 MHC complex; assay: BLI (BLItz), biotinylated scFv on streptavidin sensor, soluble pMHC 200 nM; remark: listed apart in the source
[11] = molecular target: T5, PHOX2B (43-51) A*24:02 MHC complex; assay: BLI (BLItz), biotinylated scFv on a streptavidin sensor, soluble pMHC in solution
[12] = molecular target: T5, PHOX2B (43-51) A*24:02 MHC complex; assay: BLI (BLItz), biotinylated scFv on streptavidin sensor, soluble pMHC 200 nM; remark: listed apart in the source
… HLA-A*24:02 complex [13] = molecular target: T1, … HLA-A*24:02 complex; assay: bead-based steady-state binding assay (FIG. 3A)
… HLA-A*24:02 complex [14] = molecular target: T2, … HLA-A*24:02 complex; assay: bead-based steady-state binding assay (FIG. 3A)
… HLA-A*24:02 complex [15] = molecular target: T3, … HLA-A*24:02 complex; assay: bead-based steady-state binding assay (FIG. 3A)
… HLA-A*24:02 complex [16] = molecular target: T4, … HLA-A*24:02 complex; assay: bead-based steady-state binding assay (FIG. 3A)
[17] = molecular target: T5, PHOX2B (43-51) A*24:02 MHC complex; assay: BLI (BLItz), biotinylated scFv on streptavidin sensor, soluble pMHC 200 nM; remark: listed apart in the source
… HLA-A*24:02 complex [18] = molecular target: T1, … HLA-A*24:02 complex; assay: bead-based binding, scFv on streptavidin beads, fluorescent pMHC; remark: listed apart in the source
… HLA-A*24:02 complex [19] = molecular target: T2, … HLA-A*24:02 complex; assay: as above; remark: listed apart in the source
… HLA-A*24:02 complex [20] = molecular target: T3, … HLA-A*24:02 complex; assay: as above; remark: listed apart in the source
… HLA-A*24:02 complex [21] = molecular target: T4, … HLA-A*24:02 complex; assay: as above; remark: listed apart in the source

B1: Clone 9 (RU-201-9) scFv (scFv)
scFv: SRNGGDGQSVLTQPPSVSVSPGQTASITCSGDSLGYKYACWYQQKPGQSPVLVIYQDSKRPSGIPERFSGSNSGNTATLTISGTQAMDEADYYCQAWDSLGVNTVVFGTGTKVTVSSQTGGSGGGGSGGGGSGGGGSEVQLLESGGGLVQPGGSLRLSCAASGFTFNYYAMSWVRQAPGKGLEWVSAISGYGGSTYYADSVKGRFTISRDNSKNTLYLQMNSLRAEDTAVYYCAKASEAYSAFDIWGQGTMVTVSSS
B1: no binding (tested: 3.5 nM) (… HLA-A*24:02 complex [1]); no binding (tested: 3.5 nM) (… HLA-A*24:02 complex [2]); no binding (tested: 3.5 nM) (… HLA-A*24:02 complex [3]). The binding result (… HLA-A*24:02 complex [4]) was “no binding (tested: 3.5 nM)” and the Kd [5] was 100 nM.

B2: Clone 1114 (RU201-1114) scFv (scFv)
scFv: SRNGGDGQSVLTQPPSVSVSPGQTASITCSGDKLGDKYACWYQQKPGQSPVLVIYQDSKRPSGIPERFSGSNSGNTATLTISGTQAMDEADYYCQAWDSIGNMTVVFGTGTKVTVSSQTGGSGGGGSGGGGSGGGGSEVQLLESGGGLVQPGGSLRLSCAASGFTFDYYAMSWVRQAPGKGLEWVSAISGYGGSTYYADSVKGRFTISRDNSKNTLYLQMNSLRAEDTAVYYCAKASEYTNAFDIWGQGIMVTVSSS
B2: no binding (tested: 3.5 nM) (… HLA-A*24:02 complex [6]); no binding (tested: 3.5 nM) (… HLA-A*24:02 complex [7]); no binding (tested: 3.5 nM) (… HLA-A*24:02 complex [8]). The binding result (… HLA-A*24:02 complex [9]) was “no binding (tested: 3.5 nM)” and the Kd [10] was 270 nM.

B3: Clone 10 (RU141-10) scFv (scFv)
scFv: SRNGGDGQSVLTQPPSVSVSPGQTASITCSGDSLGNKYACWYQQKPGQSPVLVIYQDSKRPSGIPERFSGSNSGNTATLTISGTQAMDEADYYCQAWDSSRGYTVVFGTGTKVTVSSQTGGSGGGGSGGGGSGGGGSEVQLLESGGGLVQPGGSLRLSCAASGFTFDSYAMSWVRQAPGKGLEWVSAISGYGGSTYYADSVKGRFTISRDNSKNTLYLQMNSLRAEDTAVYYCAKYTYFLDAFDIWGQGTMVTVSSS
With B3 the koff [11] was 0.00076 s⁻¹, the Kd [12] was 10 nM and the binding result (… HLA-A*24:02 complex [13]) was “no binding (tested: 3.5 nM pMHC)”. B3: no binding (tested: 3.5 nM pMHC) (… HLA-A*24:02 complex [14]); no binding (tested: 3.5 nM pMHC) (… HLA-A*24:02 complex [15]); no binding (tested: 3.5 nM pMHC) (… HLA-A*24:02 complex [16]).

B4: Clone 1113 (RU-201-1113) scFv (scFv)
scFv: SRNGGDGQSVLTQPPSVSAAPGQKVTISCSGSSSNIGNNYVSWYQQLPGTAPKLLIYDNNKRPSGIPDRFSGSKSGTSATLGITGLQTGDEADYYCGTWDHMGRNTVVFGTGTKVTVSSQTGGSGGGGSGGGGSGGGGSEVQLLESGGGLVQPGGSLRLSCAASGFTFSDYAMSWVRQAPGKGLEWVSAISGTGGSTYYADSVKGRFTISRDNSKNTLYLQMNSLRAEDTAVYYCAKEFSVVNSAAFDIWGQGTMVTVSSS
In the case of B4, the Kd [17] is reported as 9 nM, the binding result (… HLA-A*24:02 complex [18]) is reported as “no binding (tested: 3.5 nM)” and the binding result (… HLA-A*24:02 complex [19]) is reported as “no binding (tested: 3.5 nM)”. B4: no binding (tested: 3.5 nM) (… HLA-A*24:02 complex [20]); no binding (tested: 3.5 nM) (… HLA-A*24:02 complex [21]).
